We go through 5 molecules from patent publication CN115125236A (YEASEN BIOLOGICAL TECH SHANGHAI CO LTD, dated 2022).

The target in assay [1] is T1, 牛血清白蛋白 (牛 (bovine, by its name), UniProt P02769 25-607).
T1 construct: also called BSA
The experiment in a line: ELISA, BSA coated and blocked as control, HRP anti-flag-tag detection.

Assay [2] concerns the target T2, Benzonase (粘质沙雷氏菌 (Serratia marcescens), UniProt P13717 22-266).
T2 construct: Coated on the plate in the ELISA and used as the sample in the sandwich ELISA; also called 全能核酸酶; Benzonase蛋白
T2 sequence (looked up): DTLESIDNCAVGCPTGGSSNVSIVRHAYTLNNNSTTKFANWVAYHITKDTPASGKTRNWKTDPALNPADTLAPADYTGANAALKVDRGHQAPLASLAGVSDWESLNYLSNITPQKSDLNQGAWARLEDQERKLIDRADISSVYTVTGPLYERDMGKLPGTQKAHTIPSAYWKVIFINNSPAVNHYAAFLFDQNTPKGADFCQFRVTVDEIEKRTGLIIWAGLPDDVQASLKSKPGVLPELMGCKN
As to the kind of experiment: ELISA, Benzonase coated, scFv from 1 μg/ml in twofold dilutions, HRP anti-flag-tag detection. Background: In an ELISA, binding on a coated surface is turned into a signal by an enzyme label.

Assay [3] deals with T2, Benzonase. As to the kind of experiment: sandwich ELISA, biotin-scFv4 as detection on Benzonase captured by scFv3, HRP-streptavidin.

T1 sequence (P02769 25-607 limits assumed): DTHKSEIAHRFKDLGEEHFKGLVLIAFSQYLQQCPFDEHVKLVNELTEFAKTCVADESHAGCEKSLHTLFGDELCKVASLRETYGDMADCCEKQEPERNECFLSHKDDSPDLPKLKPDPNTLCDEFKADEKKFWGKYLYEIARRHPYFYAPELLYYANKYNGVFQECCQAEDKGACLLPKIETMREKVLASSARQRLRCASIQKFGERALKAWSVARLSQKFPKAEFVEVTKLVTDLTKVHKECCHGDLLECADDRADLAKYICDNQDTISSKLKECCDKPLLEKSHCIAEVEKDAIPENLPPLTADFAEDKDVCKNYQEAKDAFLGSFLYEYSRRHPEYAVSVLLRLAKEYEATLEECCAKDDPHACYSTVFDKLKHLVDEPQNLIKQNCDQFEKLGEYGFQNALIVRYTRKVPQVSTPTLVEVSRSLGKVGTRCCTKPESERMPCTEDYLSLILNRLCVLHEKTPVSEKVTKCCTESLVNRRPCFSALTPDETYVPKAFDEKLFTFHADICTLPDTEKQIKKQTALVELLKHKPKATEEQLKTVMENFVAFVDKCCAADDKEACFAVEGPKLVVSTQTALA

B1: Benzonase单克隆抗体scFv6 (scFv)
scFv: QLVESGGDLVKPGASLTLTCTASGFTLSSYWMCWVRQAPGKGLEWIGCIDTGSSDSTYYANWAKGRFTISKASSTTVTLQMTSVTPADTATYFCARHLRYSTNNNDWDLWGPGTLVTVSSGGGGSGGGGSGGGGSDLTQTPASVEAAVGDTVTIKCQASQSIYNYLAWYQQKPGQPPKVLIYAASNLASGVPSRFSGSGSGTQFTLTISGVQCDDAATYYCAGAYSTYGDNGFGGGTEVVVKA
As for B1, the binding result is “no binding (tested: 1μg/ml后二倍梯度稀释)” in assay [1] and “binds” in assay [2].

B2: Benzonase单克隆抗体scFv1 (scFv)
scFv: QLVESGGGLVTPGTPLTLTCTASGFSLSSYWMSWVRQAPGKGLEWIGVISSSGSTDYASWAKGRFTISKTSTTVDLKITSLTTEDTAIYFCARYSSDWNAYDLWGQGTLVTISSGGGGSGGGGSGGGGSVLTQTPSPVSAAVGGTVTISCQASQSVYGNNYLSWFQQKPGQPPKLLIYQASTLASGVPSRFSGSGSGTQFSLTISGVQCDDAATYYCAGWSGSGTDAVAFGGGTELEILGRSGP
In the case of B2, the binding result is recorded as “no binding (tested: 1μg/ml后二倍梯度稀释)” in assay [1] and “binds” in assay [2].

B3: Benzonase单克隆抗体scFv3 (scFv)
scFv: QLVESGGRLVTPGTPLTLTCTASGFALSGYYMTWVRQAPGKGLEWIGITHPSGSTYYASWVKGRFTISKASTTVDLRITSPTTEDTATYFCARVWTHYSSGGGDLWGPGTLVTISSGGGGSGGGGSGGGGSDLTQTPSSVSAAVGGTVTINCQSSESVYKNNDLSWYQQKPGQPPKLLISAASTLASGVPSRFKGSGSGTQFTLTISGVQCDDAATYYCQQGYSGDNVVNTFGGGTEVVVK
B3: the binding result was “no binding (tested: 1μg/ml后二倍梯度稀释)” in assay [1] and “binds” in assay [2].

B4: Benzonase单克隆抗体scFv4 (scFv)
scFv: QLMESGGGLVQPGASLTLTCTASGFSFSSNYWICWVRQAPGKGLEWIGCIYTGTSGTTYYASWAKGRFTISETSSTTVTLQMTSLTAADTATYFCSKNTYGYALAARLDLWGQGTLVTISSGGGGSGGGGSGGGGSDMTQTPASVEVAVGGTVTIKCQASQSIGSDLAWYQQKLGQPPKLLIYYASTLESGAPARFSGSGSGTEYTLTITDVQCDDAATYYCAGDYSSGNDNGFGGGTEVVVKA
Regarding B4, the binding result in assay [1] was “no binding (tested: 1μg/ml后二倍梯度稀释)”; in assay [3], “binds”.

B5: Benzonase单克隆抗体scFv5 (scFv)
scFv: QLMESGGGLVTPGGTLTLTCTASGFSLSNYWMSWVRQAPGKGLEWIGIISNYGSTYYASWAKGRFTISKTSTTVDLRITSPTIEDTATYFCAREFAGVFNLWGPGTLVTVSSGGGGSGGGGSGGGGSDMTQTPASVSEPVGGTVTINCQASQSVYNNKNLAWYQQKPGQPPKVLIYKASTLASGVSSRFKGSGSGTEFTLTISDLECADAATYYCQQGHDTNVQNLFGGGTEVVVKAAAGA
For the molecule B5, the values for the binding result in assay [1] and in assay [2] were “no binding (tested: 1μg/ml后二倍梯度稀释)” and “binds”, respectively.
